Where two headings read alike, the source gives them in different places.
T1: IL-6R on cells (THP-1, A549) (UniProt P08887 20-468, limits assumed)
T1 construct: whole, on cells; also called THP-1 (IL-6R+/PD-L1+)
T1 sequence (looked up): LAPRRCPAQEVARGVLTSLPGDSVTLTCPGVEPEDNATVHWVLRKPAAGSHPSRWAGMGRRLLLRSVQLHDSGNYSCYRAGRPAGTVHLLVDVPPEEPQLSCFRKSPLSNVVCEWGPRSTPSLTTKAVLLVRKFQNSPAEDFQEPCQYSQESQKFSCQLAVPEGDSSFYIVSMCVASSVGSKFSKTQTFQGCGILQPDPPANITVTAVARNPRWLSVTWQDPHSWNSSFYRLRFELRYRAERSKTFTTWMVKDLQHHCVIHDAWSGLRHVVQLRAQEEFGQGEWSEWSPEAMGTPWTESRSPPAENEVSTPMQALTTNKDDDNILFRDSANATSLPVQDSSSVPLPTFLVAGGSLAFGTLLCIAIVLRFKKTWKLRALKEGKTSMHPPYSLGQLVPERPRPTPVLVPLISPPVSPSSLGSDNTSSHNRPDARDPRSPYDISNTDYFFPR

T2: soluble IL-6R (sIL-6R-TS) (UniProt P08887 20-358)
T2 construct: not shown: TwinStrepII tag (TS)
T2 sequence (looked up): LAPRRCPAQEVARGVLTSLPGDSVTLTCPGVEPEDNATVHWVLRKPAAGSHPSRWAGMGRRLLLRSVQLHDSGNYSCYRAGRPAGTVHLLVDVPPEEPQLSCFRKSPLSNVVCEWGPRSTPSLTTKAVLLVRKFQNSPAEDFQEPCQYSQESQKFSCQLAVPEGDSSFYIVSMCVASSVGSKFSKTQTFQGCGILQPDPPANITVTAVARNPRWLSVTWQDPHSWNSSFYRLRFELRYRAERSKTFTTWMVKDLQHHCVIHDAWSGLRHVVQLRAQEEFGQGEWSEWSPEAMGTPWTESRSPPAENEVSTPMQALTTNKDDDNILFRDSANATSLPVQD

B1: HCP-LCE (heavy chain PD-L1-light chain EGFR) Two-in-One antibody (bispecific antibody, human IgG1, lambda, L234A L235A, V domains shown)
VH: AVTLDESGGGLQTPGGALSLVCKASGFDFSSYDMAWVRQAPGKGLEWVAGIKSNGPWTNYGAAVKGRATISRDNGQSTVRLQLNNLRAEDTAIYYCAKPGAGYVGWDAAGTIDSWGHGTEVIVSS
VL: ALTQPSSVSANLGETVKITCSGGAYSDCGWYQQKSPGSAPVTVIYYNDKRPSDIPSRFSGSTFGSTATLTITGVQAEDEAVYYCGGYDSRTGYVGVFGAGTTLTVLG
notes: Symmetric full-length IgG; heavy chain is the ICI2 heavy chain, lambda CL; also called 2in1
B2: (αCD3ε)K+H (bispecific antibody)
heavy 1: not shown
heavy 2: B1 VH
light: ALTQPSSVSANLGETVKITCSGGAYSDCGWYQQKSPGSAPVTVIYYNDKRPSDIPSRFSGSTFGSTATLTITGVQAEDEAVYYCGGYDSRTGYVGVFGAGTTLTVLGQPKANPTVTLFPPSSEELQANKATLVCLISDFYPGAVTVAWKADGSPVKAGVETTKPSKQSNNKYAASSYLSLTPEQWKSHRSYSCQVTHEGSTVEKTVAPTECS
notes: Control variant with anti-CD3ε scFv fused to the N-terminus of the VH of the knob chain; not shown: CH1 and Knob-Fc (IgG1 LALA) with Twin-StrepII tag; CH1 and Hole-Fc (IgG1 LALA) with His6 tag
B3: (αCD3ε)K(αIL-6R)+H(αIL-6R) TriTECM (bispecific antibody)
heavy 1: not shown
heavy 2: AVTLDESGGGLQTPGGALSLVCKASGFDFSSYDMAWVRQAPGKGLEWVAGIKSNGPWTNYGAAVKGRATISRDNGQSTVRLQLNNLRAEDTAIYYCAKPGAGYVGWDAAGTIDSWGHGTEVIVSSASTKGPSVFPLAPSSKSTSGGTAALGCLVKDYFPEPVTVSWNSGALTSGVHTFPAVLQSSGLYSLSSVVTVPSSSLGTQTYICNVNHKPSNTKVDKRVEPKSCDKTHTCPPCPAPEAAGGPSVFLFPPKPKDTLMISRTPEVTCVVVDVSHEDPEVKFNWYVDGVEVHNAKTKPREEQYNSTYRVVSVLTVLHQDWLNGKEYKCKVSNKALPAPIEKTISKAKGQPREPQVYTLPPSREEMTKNQVSLSCAVKGFYPSDIAVEWESNGQPENNYKTTPPVLDSDGSFFLVSKLTVDKSRWQQGNVFSCSVMHEALHNRFTQKSLSLSPGGSHHHHHHGGGGSGGGGSGGGGSSEVQLVESGGGLVQPGRSLRLSCAASRFTFDDYAMHWVRQAPGKGLEWVSGISWNSGRIGYADSVKGRFTISRDNAENSLFLQMNGLRAEDTALYYCAKGRDSFDIWGQGTMVTVSSAGGGGSGGGGSGGGGSSDIQMTQSPSSVSASVGDRVTITCRASQGISSWLAWYQQKPGKAPKLLIYGASSLESGVPSRFSGSGSGTDFTLTISSLQPEDFASYYCQQANSFPYTFGQGTKLEIKR
light: B2 light
notes: Fabs from HCP-LCE; effector-silenced IgG1 LALA; also called scFv(VH)-IgG1(H)-scFv2
B4: K+H (parental two-in-one antibody in Knob-into-Hole, effector-silenced LALA IgG1 format) (bispecific antibody, V domains shown)
VH: B1 VH
VL: B1 VL
notes: HCP-LCE Fabs on IgG1 LALA Knob-into-Hole Fc; also called parental K+H antibody
B5: K(αCD3ε)+H(αIL-6R) TriTECM (bispecific antibody)
heavy 1: not shown
heavy 2: B3 heavy 2
light: B2 light
notes: Fabs from HCP-LCE; effector-silenced IgG1 LALA; also called IgG1(H)-scFv2

Assays:
[1] = biological target: T3, epidermal growth factor receptor (EGFR), soluble, as used in BLI (UniProt P00533 25-645); experiment: BLI
T3 construct: extracellular domain; also called EGFR-ECD

[2] = biological target: T4, programmed death-ligand 1 (PD-L1), soluble, as used in BLI (UniProt Q9NZQ7 19-238); experiment: BLI
T4 construct: extracellular domain; also called PD-L1-ECD
T4 sequence (Q9NZQ7 19-238): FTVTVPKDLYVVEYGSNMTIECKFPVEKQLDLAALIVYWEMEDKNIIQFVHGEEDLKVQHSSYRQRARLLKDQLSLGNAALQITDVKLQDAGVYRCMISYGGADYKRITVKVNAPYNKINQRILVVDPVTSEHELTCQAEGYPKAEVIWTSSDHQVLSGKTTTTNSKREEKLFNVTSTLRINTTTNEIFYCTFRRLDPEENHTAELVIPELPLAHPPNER

[3] = biological target: T3, epidermal growth factor receptor …; experiment: BLI; remark: listed apart in the source
[4] = biological target: T4, programmed death-ligand 1 (PD-L1), …; experiment: BLI; remark: listed apart in the source
[5] = biological target: PD-L1 on cells (A431; cells of the Promega PD-L1 blockade assay kit) (UniProt Q9NZQ7 19-290); experiment: cell-based or functional assay
PD-L1 on cells (A431; cells of the Promega PD-L1 blockade assay kit), sequence (Q9NZQ7 19-290): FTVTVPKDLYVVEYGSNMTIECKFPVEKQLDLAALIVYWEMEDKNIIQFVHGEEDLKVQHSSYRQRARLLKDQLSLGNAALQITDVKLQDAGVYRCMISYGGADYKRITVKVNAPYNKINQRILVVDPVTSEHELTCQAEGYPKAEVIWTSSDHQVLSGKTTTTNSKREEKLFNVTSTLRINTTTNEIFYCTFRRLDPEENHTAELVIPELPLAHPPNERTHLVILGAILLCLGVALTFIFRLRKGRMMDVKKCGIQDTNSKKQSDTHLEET

[6] = biological target: T5, EGFR and PD-L1 on EGFR/PD-L1 double positive A431 cells (UniProt P00533 25-1210; Q9NZQ7 19-290); experiment: flow cytometry on EGFR/PD-L1 double-positive A431 cells, anti-human Fc PE detection
T5 construct: whole, on cells; Two separate cell-surface proteins, not a complex; also called A431 (EGFR+/PD-L1+)

273-621 = 273-621 (human, UniProt P00533); experiment: flow cytometry on yeast cells displaying truncated EGFR fragments; detection with goat anti-human Fc PE
294-543 = 294-543 (human, UniProt P00533); experiment: as above
475-621 = 475-621 (human, UniProt P00533); experiment: as above
[7] = biological target: T5, EGFR and PD-L1 on EGFR/PD-L1 double …; experiment: flow cytometry on A431 cells
[8] = biological target: T6, His6-EGFR-TS (soluble, monomeric EGFR) (UniProt P00533 25-645); experiment: BLI, antibody on AHC biosensors
T6 construct: not shown: TwinStrepII tag (TS)

[9] = biological target: T7, His6-PD-L1-TS (soluble, monomeric PD-L1) (UniProt Q9NZQ7 19-238); experiment: BLI, antibody on AHC biosensors
T7 construct: not shown: TwinStrepII tag (TS)
T7 sequence (Q9NZQ7 other isoform, or with tags, fused parts or gaps): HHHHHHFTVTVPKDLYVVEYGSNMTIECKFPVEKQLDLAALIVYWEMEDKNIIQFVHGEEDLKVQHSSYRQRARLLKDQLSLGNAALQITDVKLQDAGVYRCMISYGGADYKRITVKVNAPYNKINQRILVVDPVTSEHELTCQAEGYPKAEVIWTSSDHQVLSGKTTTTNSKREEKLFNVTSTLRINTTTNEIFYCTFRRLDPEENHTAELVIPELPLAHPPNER

[10] = biological target: T1, IL-6R on cells (THP-1, A549); experiment: flow cytometry on THP-1 cells; legend: - represents no significant binding
[11] = biological target: T2, soluble IL-6R (sIL-6R-TS); experiment: BLI simultaneous binding; antibody on AHC biosensors; 200 nM IL-6R, then 500 nM EGFR, then 500 nM PD-L1, 300 s each
[12] = biological target: T5, EGFR and PD-L1 on EGFR/PD-L1 double …; experiment: flow cytometry; Jurkat cells with antibody mixed with Calcein AM-stained A431 cells; anti-human Fc PE detection; Q2 = PE-positive Calcein-stained A431 events; Neg Ctrl Q2 0.13
[13] = biological target: T2, soluble IL-6R (sIL-6R-TS); experiment: BLI, antibody on AHC biosensors
[14] = biological target: T8, CD3 (CD3ε) on cells (Jurkat; TCR/CD3 effector cells) (UniProt P07766 23-207, limits assumed); experiment: flow cytometry; Jurkat cells with antibody mixed with Calcein AM-stained A431 cells; anti-human Fc PE detection; Q3 = CD3-binding on Jurkats
T8 construct: whole, on cells; that number is the CD3ε entry; also called Jurkat (CD3+)
T8 sequence (P07766 23-207 limits assumed): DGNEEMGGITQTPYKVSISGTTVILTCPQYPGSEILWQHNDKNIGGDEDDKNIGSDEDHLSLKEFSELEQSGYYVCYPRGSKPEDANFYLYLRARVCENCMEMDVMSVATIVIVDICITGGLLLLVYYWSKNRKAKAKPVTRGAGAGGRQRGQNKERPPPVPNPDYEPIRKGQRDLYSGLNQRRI

Binder | On-cell affinity [7] [nM] | Kd [8] [nM] | Kd [9] [nM] | binding result [10] | binding result [11] | Q2 (FITC+/PE+) % of events [12] [%] | Kd [13] [nM] | also measured
B1 |  |  |  |  |  |  |  | Kd [1]: 236 nM; Kd [2]: 78.3 nM; Kd [3]: 236 nM; koff [3]: 0.0981 s⁻¹; kon [3]: 415000 M⁻¹ s⁻¹; Kd [4]: 78.3 nM; koff [4]: 0.0762 s⁻¹; kon [4]: 973000 M⁻¹ s⁻¹; EC50, cell-based PD-1/PD-L1 blockage assay (luciferase activity) [5]: 214 nM; EC50 [6]: 1.37 nM; binding result (273-621): no binding; binding result (294-543): no binding; binding result (475-621): no binding
B2 | 1.82 | 236 | 108 | no binding | no binding (tested: 200 nM) | 15 |  | 
B3 | 12.3 | 271 | 130 |  |  | 16.5 | 2.71 | 
B4 | 2.5 | 173 | 92.9 | no binding | no binding (tested: 200 nM) | 14 |  | binding result [14]: no binding
B5 | 21.2 | 172 |  |  |  | 12.2 | 1.8 | 
